In US20240277857A1 (NBIOS, published 2024):

Legend:
[1] = biological target: T1, coil C-mCherry-6xHis fusion protein (human); test: ITC, C′-GFP injected into C-mCherry, PBS pH 7.5, 25 °C
T1 construct: also called mCherry-C; wild-type mCherry-C; not shown: mCherry red fluorescent protein fused to the C-terminal of coil C
T1 chain: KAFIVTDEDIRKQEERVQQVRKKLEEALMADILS
Method: ITC analysis was conducted using MicroCal Auto-iTC200 (Malvern Panalytical) at the Korea Basic Science Institute (Ochang, Korea). […] For titration, 2 μL of C′-GFP was injected to C-mCherry 19 times at 25° C. for 4 seconds, with 150-seconds intervals, and data were analyzed using the MicroCal Origin 7.0 software. N is the stoichiometric number, KD is the binding affinity, and AH and AS are changes in enthalpy and binding entropy, respectively.

[2] = biological target: T2, C_Ala27 (A27C) coil C mutant fused to mCherry (human); test: FRET between GFP and mCherry, equimolar mixture, 4 µM, plate reader
T2 construct: also called C half of Ala27-Ile8
T2 chain: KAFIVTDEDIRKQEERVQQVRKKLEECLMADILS
Method: (§1) A sample of wild-type GFP alone or a mixture of C′-GFP/C-mCherry, Ala27-lle8 and Thr6-Arg29 in equimolar quantities was diluted appropriately with phosphate-buffered saline (PBS) to make a total volume of 200 μL and a concentration of 4 μM. The sample was transferred to a 96-well plate and the absorbance at 510 nm 488 nm and luminescence (fluorescence) of each well were measured with the Synergy H1 hybrid multi-mode microplate reader (BioTek). After calculating the luminescence (A) per unit absorbance of the wild-type GFP alone sample and the luminescence (B) per unit absorbance of each sample, fluorescence resonance energy transfer efficiency was calculated by the following equation.

[3] = biological target: T3, C_Thr6 (T6C) coil C mutant fused to mCherry (human); test: as above
T3 construct: also called C half of Thr6-Arg29
T3 chain: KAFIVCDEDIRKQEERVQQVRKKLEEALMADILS
Method: as §1

B1: coil C′-GFP-6xHis fusion protein (other)
chain: PEERERMIKQLKEELRLEEAKLVLLKKLRQSQIQKEATAQK
notes: also called GFP-C′; wild-type GFP-C′; not shown: green fluorescent protein (GFP) fused to the C-terminal of coil C′
- Kd [1]: 10.7 nM
- ΔH [1]: -2.6 kcal/mol
- ΔS [1]: -52.4 cal/mol/deg

Binder: PEERERMCKQLKEELRLEEAKLVLLKKLRQSQIQKEATAQK (other, not shown: large carriers, not fully specified, also called 18C; C′ half of Ala27-Ile8) [C′_Ile8 (I8C) coil C′ mutant fused to GFP]
- FRET efficiency, fold against wild-type (GFP-C′+mCherry-C) [2]: ≥ 2 fold

Binder: PEERERMIKQLKEELRLEEAKLVLLKKLCQSQIQKEATAQK (other, not shown: large carriers, also called C′ half of Thr6-Arg29) [C′_Arg29 (R29C) coil C′ mutant fused to GFP]
- FRET efficiency, fold against wild-type (GFP-C′+mCherry-C) [3]: ≥ 2 fold
